Assay results reported in article PMC8486322 (Cell, 2019).

Molecular target: eRF3 fused with maltose binding protein (MBP-eRF3) ( (the printed NM_002094.3 is …, UniProt P15170-3 1-637))
Experiment: pull-down

- binding result: binds
B1: SFL fused with glutathione S-transferase (GST-SFL) (natural protein)
chain: not shown
